# Experimental data from PMC10772121 (Scientific Reports, 2024).
# Values joined by “and” are separate entries in the source; they are usually repeats but may differ in a detail not shown here. Identical values can stand only once.
# Assays:
# Conditions in all cases: both partners purified
# [1] = target: T1, KIR2DL3 D47N ectodomain (Homo sapiens, UniProt P43628-1, D47N); test: BLI; lirilumab (IgG1) loaded on AHC biosensors, KIR2DL3 D47N as analyte (peak concentration 500 nM); Octet RED384, 25 °C, 20 mM MOPS pH 7.5, 150 mM NaCl, 0.1% BSA, 0.02% Tween-20; steady state binding model because the 1:1 model fitted poorly; single replicates
# T1 construct: also called KIR2DL3 D47N (293F); Var6; source: HEK 293F supernatant, purified (EDTA-resistant Ni-NTA, size exclusion chromatography)
# [2] = target: T2, KIR2DL3 ectodomain (Homo sapiens, UniProt P43628-1); test: BLI; lirilumab (IgG1) loaded on AHC (anti-human IgG) biosensors, KIR protein as analyte (two-fold dilutions from 250 nM); Octet RED384, 25 °C, 20 mM MOPS pH 7.5, 150 mM NaCl, 0.1% BSA, 0.02% Tween-20; global 1:1 binding model, at least 4 curves; single replicates
# T2 construct: also called wild-type KIR2DL3; KIR2DL3 (293F); source: HEK 293F supernatant, purified (EDTA-resistant Ni-NTA, size exclusion chromatography)
# [3] = target: T3, KIR2DL1 (Sino Biological 13,145-H08H) (Homo sapiens; allele of bought protein …, UniProt P43626-1); test: as above
# T3 construct: human KIR2DL1, commercially sourced recombinant protein; The catalogue product is recalled to be the extracellular domain with a C-terminal His tag; also called KIR2DL1 (293, Sino Biological); source: bought: Sino Biological 13,145-H08H (293)
# [4] = target: T4, KIR2DL3 F45Y ectodomain (Homo sapiens, UniProt P43628-1, F45Y); test: as above
# T4 construct: also called KIR2DL3 F45Y (293F); Var4; source: HEK 293F supernatant, purified (EDTA-resistant Ni-NTA, size exclusion chromatography)
# [5] = target: T5, KIR2DL3 H50R ectodomain (Homo sapiens, UniProt P43628-1, H50R); test: as above
# T5 construct: also called KIR2DL3 H50R (293F); Var7; source: HEK 293F supernatant, purified (EDTA-resistant Ni-NTA, size exclusion chromatography)
# [6] = target: T6, wild-type KIR2DL3 ectodomain (HEK 293F) (Homo sapiens, UniProt P43628-1); test: BLI; lirilumab (IgG1) loaded on anti-human IgG (AHC) biosensors, KIR protein as analyte, 6 two-fold dilutions from 250 nM; 25 °C; 20 mM MOPS pH 7.5, 150 mM NaCl, 0.1% BSA, 0.02% Tween-20; global 1:1 fit; average of 3 technical replicates
# T6 construct: Same construct as m3 but expressed in HEK 293F cells for BLI; source: HEK 293F, purified as the CHO-S protein (HisTrap FF)
# [7] = target: T7, KIR2DL3 F45Y (Homo sapiens, UniProt P43628-1, F45Y); test: as above
# T7 construct: also called KIR2DL3 F45Y variant; source: HEK 293F, purified as the CHO-S protein (HisTrap FF)
# [8] = target: T8, KIR2DL3 H50R (Homo sapiens, UniProt P43628-1, H50R); test: as above
# T8 construct: also called KIR2DL3 H50R variant; source: HEK 293F, purified as the CHO-S protein (HisTrap FF)
# [9] = target: T9, Commercially sourced KIR2DL1 (Sino Biological 13,145-H08H) (Homo sapiens; allele of bought protein …, UniProt P43626-1); test: as above
# T9 construct: KIR2DL1, commercially sourced recombinant protein; source: bought: Sino Biological
# [10] = target: T10, KIR2DL3 D47N (Homo sapiens, UniProt P43628-1, D47N); test: BLI; lirilumab (IgG1) loaded on anti-human IgG (AHC) biosensors, KIR2DL3 D47N as analyte, two-fold dilutions from 500 nM; 25 °C; 20 mM MOPS pH 7.5, 150 mM NaCl, 0.1% BSA, 0.02% Tween-20; steady state equilibrium model (kinetic fit unsuccessful); average of 3 technical replicates
# T10 construct: also called KIR2DL3 D47N variant; KIR2DL3 D47N mutant; source: HEK 293F, purified as the CHO-S protein (HisTrap FF)
# T10 sequence (P43628 22-245 D68N): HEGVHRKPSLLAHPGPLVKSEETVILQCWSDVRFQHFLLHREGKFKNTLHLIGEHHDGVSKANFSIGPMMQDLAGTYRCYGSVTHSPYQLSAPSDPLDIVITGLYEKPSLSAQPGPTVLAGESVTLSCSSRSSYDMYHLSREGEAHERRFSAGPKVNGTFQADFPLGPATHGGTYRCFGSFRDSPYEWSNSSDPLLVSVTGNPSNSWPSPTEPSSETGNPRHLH
# T5 sequence (P43628 22-245 H71R): as the sequence (P43628 22-245 D68N) above, with N47D, H50R counted along it
# T2 sequence (P43628 22-245): as the sequence (P43628 22-245 D68N) above, with N47D counted along it
# T3 sequence (P43626 22-245): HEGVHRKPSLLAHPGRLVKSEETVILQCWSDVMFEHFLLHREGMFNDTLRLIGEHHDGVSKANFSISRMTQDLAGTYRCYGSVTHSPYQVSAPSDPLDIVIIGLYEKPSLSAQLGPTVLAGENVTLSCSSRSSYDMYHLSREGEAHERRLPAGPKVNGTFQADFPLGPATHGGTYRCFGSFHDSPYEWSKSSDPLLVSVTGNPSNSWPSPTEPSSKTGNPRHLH
# T4 sequence (P43628 22-245 F66Y): as the sequence (P43628 22-245 D68N) above, with F45Y, N47D counted along it
# T1 sequence (P43628 22-245 D68N): as the sequence (P43628 22-245 D68N) above
# T8 sequence (P43628 22-245 H71R): as the sequence (P43628 22-245 D68N) above, with N47D, H50R counted along it
# T6 sequence (P43628 22-245): as the sequence (P43628 22-245 D68N) above, with N47D counted along it
# T9 sequence (P43626 22-245): as the sequence (P43626 22-245) above
# T7 sequence (P43628 22-245 F66Y): as the sequence (P43628 22-245 D68N) above, with F45Y, N47D counted along it
Kd [1],Kd [2],koff [2],kon [2],Kd [3],koff [3],kon [3],Kd [4],koff [4],kon [4],Kd [5],koff [5],kon [5],Kd [6] [nM],Kd [7] [nM],Kd [8] [nM],Kd [9] [nM],Kd [10] [nM],Binder
1400 nM and 1900 nM,1.64 nM and 2.83 nM and 3.78 nM,0.000366 s⁻¹ and 0.000622 s⁻¹ and 0.000892 s⁻¹,224000 M⁻¹ s⁻¹ and 220000 M⁻¹ s⁻¹ and 236000 M⁻¹ s⁻¹,11.5 nM and 9.6 nM and 8.8 nM,0.000954 s⁻¹ and 0.000995 s⁻¹ and 0.000947 s⁻¹,83200 M⁻¹ s⁻¹ and 104000 M⁻¹ s⁻¹ and 107000 M⁻¹ s⁻¹,10.2 nM and 10.8 nM and 8.5 nM,0.00125 s⁻¹ and 0.00155 s⁻¹ and 0.00145 s⁻¹,122000 M⁻¹ s⁻¹ and 144000 M⁻¹ s⁻¹ and 170000 M⁻¹ s⁻¹,7.98 nM and 10.6 nM and 15 nM,0.00195 s⁻¹ and 0.00244 s⁻¹ and 0.00317 s⁻¹,244000 M⁻¹ s⁻¹ and 231000 M⁻¹ s⁻¹ and 212000 M⁻¹ s⁻¹,,,,,,"lirilumab (IgG1) (antibody, V domains shown) VH: QVQLVQSGAEVKKPGSSVKVSCKASGGTFSFYAISWVRQAPGQGLEWMGGFIPIFGAANYAQKFQGRVTITADESTSTAYMELSSLRSDDTAVYYCARIPSGSYYYDYDMDVWGQGTTVTVSS VL: EIVLTQSPVTLSLSPGERATLSCRASQSVSSYLAWYQQKPGQAPRLLIYDASNRATGIPARFSGSGSGTDFTLTISSLEPEDFAVYYCQQRSNWMYTFGQGTKLEIK [lirilumab (IgG1), listing 1 of 2 here]"
,,,,,,,,,,,,,2.8,9.9,11.2,10,1650,"lirilumab (IgG1) (antibody, V domains shown) VH: QVQLVQSGAEVKKPGSSVKVSCKASGGTFSFYAISWVRQAPGQGLEWMGGFIPIFGAANYAQKFQGRVTITADESTSTAYMELSSLRSDDTAVYYCARIPSGSYYYDYDMDVWGQGTTVTVSS VL: EIVLTQSPVTLSLSPGERATLSCRASQSVSSYLAWYQQKPGQAPRLLIYDASNRATGIPARFSGSGSGTDFTLTISSLEPEDFAVYYCQQRSNWMYTFGQGTKLEIK [lirilumab (IgG1), listing 2 of 2 here]"
